Molecular target: mitochondrial ATP synthase (mouse (endogenous in MEFs)) (UniProt Q03265)
Experiment: native gel or EMSA

For “mitochondrial ATP synthase (from UniProt Q03265 44-553) (complex)”, the stoichiometry N was 2.

— PMC3088644
